B1: RNA helicase p68 (human p68 cDNA construct, expressed in transfected Cos7 cells) (enzyme, UniProt P17844 1-614, looked up)
chain: MSGYSSDRDRGRDRGFGAPRFGGSRAGPLSGKKFGNPGEKLVKKKWNLDELPKFEKNFYQEHPDLARRTAQEVETYRRSKEITVRGHNCPKPVLNFYEANFPANVMDVIARQNFTEPTAIQAQGWPVALSGLDMVGVAQTGSGKTLSYLLPAIVHINHQPFLERGDGPICLVLAPTRELAQQVQQVAAEYCRACRLKSTCIYGGAPKGPQIRDLERGVEICIATPGRLIDFLECGKTNLRRTTYLVLDEADRMLDMGFEPQIRKIVDQIRPDRQTLMWSATWPKEVRQLAEDFLKDYIHINIGALELSANHNILQIVDVCHDVEKDEKLIRLMEEIMSEKENKTIVFVETKRRCDELTRKMRRDGWPAMGIHGDKSQQERDWVLNEFKHGKAPILIATDVASRGLDVEDVKFVINYDYPNSSEDYIHRIGRTARSTKTGTAYTFFTPNNIKQVSDLISVLREANQAINPKLLQLVEDRGSGRSRGRGGMKDDRRDRYSAGKRGGFNTFRDRENYDRGYSSLLKRDFGAKTQNGVYSAANYTNGSFGSNFVSAGIQTSFRTGNPTGTYQNGYDSTQQYGSNVPNMHNGMNQQAYAYPATAAAPMIGYPMPTGYSQ
notes: Present in nuclear extracts or total lysates of Cos7 cells transfected with the p68 construct; also called Ddx5; DDX5
B2: inhibitor Smad6 (other, UniProt O43541 1-496, looked up)
chain: MFRSKRSGLVRRLWRSRVVPDREEGGSGGGGGGDEDGSLGSRAEPAPRAREGGGCGRSEVRPVAPRRPRDAVGQRGAQGAGRRRRAGGPPRPMSEPGAGAGSSLLDVAEPGGPGWLPESDCETVTCCLFSERDAAGAPRDASDPLAGAALEPAGGGRSREARSRLLLLEQELKTVTYSLLKRLKERSLDTLLEAVESRGGVPGGCVLVPRADLRLGGQPAPPQLLLGRLFRWPDLQHAVELKPLCGCHSFAAAADGPTVCCNPYHFSRLCGPESPPPPYSRLSPRDEYKPLDLSDSTLSYTETEATNSLITAPGEFSDASMSPDATKPSHWCSVAYWEHRTRVGRLYAVYDQAVSIFYDLPQGSGFCLGQLNLEQRSESVRRTRSKIGFGILLSKEPDGVWAYNRGEHPIFVNSPTLDAPGGRALVVRKVPPGYSIKVFDFERSGLQHAPEPDAADGPYDPNSVRISFAKGWGPCYSRQFITSCPCWLEILLNNPR
B3: GST-Smad1 (MH1 domain) fusion protein (other, UniProt Q15797 12-136, looked up)
chain: PAVKRLLGWKQGDEEEKWAEKAVDALVKKLKKKKGAMEELEKALSCPGQPSNCVTIPRSLDGRLQVSHRKGLPHVIYCRVWRWPDLQSHHELKPLECCEFPFGSKQKEVCINPYHYKRVESPVLP
notes: domain: MH1; also called s1-n219; amino-terminal MH1 domain of Smad1; not shown: glutathione S-transferase (GST) tag

The target in assay [1] is T1, GST-Smad4(FL) fusion protein (UniProt P08515 1-218 = GST; Q13485 1-552).
T1 construct: also called s4
T1 sequence (P08515 1-218, tags or fused parts left off): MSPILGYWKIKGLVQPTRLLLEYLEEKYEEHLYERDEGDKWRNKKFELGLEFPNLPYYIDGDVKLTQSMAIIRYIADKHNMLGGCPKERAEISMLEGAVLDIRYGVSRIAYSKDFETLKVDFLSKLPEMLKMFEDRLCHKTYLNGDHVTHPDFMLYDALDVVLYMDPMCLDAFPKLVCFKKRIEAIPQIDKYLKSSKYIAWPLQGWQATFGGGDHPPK
The experiment in a line: GST pull-down from nuclear extracts of p68-transfected Cos7 cells, immunoblot with anti-p68. In general terms: In western blotting, separated proteins are transferred to a membrane and probed.

Assay [2] has as its target B1. The experiment in a line: in vitro pull-down, data not shown.
Assay [3] has as its target B1. The experiment in a line: GST pull-down from nuclear extracts of p68-transfected Cos7 cells, immunoblot with anti-p68.

With B1, in assay [1], the binding result was “no binding”.
B2: the binding result in assay [2] is given as “no binding”.
Regarding B3, in assay [3], the binding result was “no binding”.

The values above are taken from patent US20110152352A1 (TUFTS UNIVERSITY, published 2011).
